The text below walks through data of patent US20030232387A1 (Takeda / Millennium, published 2003).

Assay [1] addresses T1, human αEβ7 integrin expressed on cells (human, UniProt P38570 19-1179; P26010 20-798).
T1 construct: also called K562 transfectants that express αEβ7; L1.2 αEβ7 transfectants
The assay is described as follows: cell adhesion assay, inhibition of K562 αEβ7 cells binding to immobilised E-cadherin-IgG. The procedure: ELISA plates were coated with 100 ng/well E-cadherin-IgG fusion protein in TBS (20 mM Tris, 140 mM NaCl, pH 9)/1 mM CaCl₂ overnight at 4° C. Plates were washed with wash buffer (HBSS/1 mM CaCl₂), and blocked with HBSS/1 mM CaCl₂/2% BSA for one hour at 37° C. After blocking, plates were washed twice with wash buffer. K562 transfectants at log growth stage were collected, washed once in HBSS/0.2% BSA/1 mM CaCl₂/1 mM MgCl₂, and resuspended to 4×10⁶ cells/mL in the same buffer. Cells were labeled with the fluorecent dye BCECF-AM (Molecular Probes, 4 μg/ml final concentration) for 15 minutes at […]. Labeled cells were washed twice, and resuspended in assay buffer (HBSS/0.2% BSA/1 mM CaCl₂/1 mM MgCl₂/1 mM MnCl₂) to 8×10⁵ cells/mL. 50 μl of the cell suspension was added to the E-cadherin-IgG coated well (4×10⁴ cells/well), and mixed with 50 μl assay buffer containing antibodies with desired concentration, or isotype-matched control antibody. The plate was then incubated at room temperature for 1 hour. The fluorescence content in each well was read on a Fluorescent Concentration Analyser (IDEXX, Westbrook, Me.) before and after three washes with HBSS/0.5 mM CaCl₂/0.5 mM MgCl₂/0.5 mM MnCl₂ using a Microplate Autowasher (Bio-Tek instruments, Winooski, Vt.). The Microplate Autowasher was programmed with parameters: 250 μl wash volume, 1× wash cycle, 0 soak time, and aspiration tube depth of 70. The bound cells (after washes) were expressed as a percentage of total input cells (before washes) in each well. Each sample was set up in triplicate wells.

Assay [2] has as its target T2, α4β7 integrin expressed on transfected K562 cells (human, UniProt P13612 34-1032; P26010 20-798).
T2 construct: How the α4β7 transfectants were made is not described; also called α4β7 transfectants
The assay is described as follows: flow cytometry on K562 α4β7 transfectants. On the technique in general: Flow cytometry measures light scatter and fluorescence of single cells or particles in a stream.

Assay [3] concerns the target mutant αEβ7 integrin, αE F298A, on transfected K562 cells (human, UniProt P38570 19-1179; P26010 20-798, F298A). The assay is described as follows: flow cytometry on K562 cells expressing αEβ7 with αE F298A. The protocol: The fine specificity of mAb 5E4 was determined using a panel of transfected K562 cells that expressed various mutant αEβ7 integrins and detecting antibody binding to the transfectants by flow cytometry. The mutants proteins and methods used have been previously described in Higgins, J. M. G. et al., J. Biol. Chem. 275:25652-25664 (2000). The mutant αEβ7 integrins used contained the following mutations in the αE chain: R159S/R160S; ΔE163-E180; ΔE176; D190A; G193A; D199A; R202A/D205A; G230A/V231A; D240A; F298A; P311H/E345A/T346A; E325A; and Y354W. (See, Higgins, J. M. G. et al., J. Biol. Chem. 275:25652-25664 (2000).)
The fine specificity of mAb 5E4 was examined using transfected K562 cells that expressed αEβ7 integrin or mutated version of αEβ7 integrins, and antibody binding was detected by flow cytometry. Antibody binding was inhibited by deletion of amino acid residues 163-180 (ΔE163-E180; amino acid residues 163-180 of SEQ ID NO: 2), which are in the X domain of integrin αE chain, and was essentially abrogated by mutation of amino acid residue 298 (amino acid residue 298 of SEQ ID NO:2), which is in the I-domain, from Phenylalanine to Alanine (F298A).

Values joined by “and” are separate entries in the source; they are usually repeats but may differ in a detail not shown here. Equal entries are not always repeated.

A word on the IC50: it is the concentration needed to halve the response being measured. Lower therefore signals greater potency in that assay.

T2 sequence (P13612 34-1032 R878Q limits assumed, chain 1 of 2): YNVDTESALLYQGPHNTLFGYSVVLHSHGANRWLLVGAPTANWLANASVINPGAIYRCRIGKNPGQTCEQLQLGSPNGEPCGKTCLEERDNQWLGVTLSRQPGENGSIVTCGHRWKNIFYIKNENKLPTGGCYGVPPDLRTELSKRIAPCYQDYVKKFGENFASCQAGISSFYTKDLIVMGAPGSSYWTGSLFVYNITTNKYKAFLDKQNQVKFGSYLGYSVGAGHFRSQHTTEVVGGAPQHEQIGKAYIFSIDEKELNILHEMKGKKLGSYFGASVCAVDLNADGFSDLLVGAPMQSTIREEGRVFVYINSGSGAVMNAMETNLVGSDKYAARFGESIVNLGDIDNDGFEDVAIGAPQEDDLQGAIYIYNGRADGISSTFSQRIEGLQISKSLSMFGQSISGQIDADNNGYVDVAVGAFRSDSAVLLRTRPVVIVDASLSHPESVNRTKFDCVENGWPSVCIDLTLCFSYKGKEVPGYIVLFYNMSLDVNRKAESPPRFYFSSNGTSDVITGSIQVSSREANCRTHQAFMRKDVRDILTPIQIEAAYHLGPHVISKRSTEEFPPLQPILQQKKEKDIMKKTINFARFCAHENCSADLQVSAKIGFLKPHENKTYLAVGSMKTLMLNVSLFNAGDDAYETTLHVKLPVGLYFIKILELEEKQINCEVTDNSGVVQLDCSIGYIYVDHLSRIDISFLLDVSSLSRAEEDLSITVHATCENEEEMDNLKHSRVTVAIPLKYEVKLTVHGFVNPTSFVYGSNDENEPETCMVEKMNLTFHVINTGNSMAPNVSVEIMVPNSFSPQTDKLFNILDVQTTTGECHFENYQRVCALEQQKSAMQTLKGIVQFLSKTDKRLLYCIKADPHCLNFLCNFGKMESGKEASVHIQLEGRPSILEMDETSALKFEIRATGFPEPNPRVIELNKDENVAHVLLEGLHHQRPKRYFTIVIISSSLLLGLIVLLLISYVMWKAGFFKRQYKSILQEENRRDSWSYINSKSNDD
T2 sequence (P26010 20-798 limits assumed, chain 2 of 2): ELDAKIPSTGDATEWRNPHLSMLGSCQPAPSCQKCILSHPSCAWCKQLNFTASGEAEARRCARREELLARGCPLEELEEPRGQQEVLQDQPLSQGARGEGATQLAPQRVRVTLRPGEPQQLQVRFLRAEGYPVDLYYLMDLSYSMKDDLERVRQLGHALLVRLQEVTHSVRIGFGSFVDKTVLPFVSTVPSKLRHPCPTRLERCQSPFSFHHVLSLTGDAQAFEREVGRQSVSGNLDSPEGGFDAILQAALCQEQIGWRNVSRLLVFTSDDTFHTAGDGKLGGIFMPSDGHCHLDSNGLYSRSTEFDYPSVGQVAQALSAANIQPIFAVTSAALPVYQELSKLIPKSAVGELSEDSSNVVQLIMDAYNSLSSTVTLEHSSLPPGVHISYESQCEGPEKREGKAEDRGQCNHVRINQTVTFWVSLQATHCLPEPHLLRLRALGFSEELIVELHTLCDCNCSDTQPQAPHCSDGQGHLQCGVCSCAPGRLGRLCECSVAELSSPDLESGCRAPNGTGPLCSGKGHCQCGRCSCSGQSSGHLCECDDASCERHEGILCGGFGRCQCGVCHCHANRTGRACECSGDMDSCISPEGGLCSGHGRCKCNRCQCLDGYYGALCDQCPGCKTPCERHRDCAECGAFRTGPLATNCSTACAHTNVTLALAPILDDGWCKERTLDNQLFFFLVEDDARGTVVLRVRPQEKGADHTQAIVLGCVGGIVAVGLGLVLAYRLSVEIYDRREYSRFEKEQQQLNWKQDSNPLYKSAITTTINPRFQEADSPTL
T1 sequence (P38570 other isoform, or with tags, fused parts or gaps limits assumed, chain 1 of 2): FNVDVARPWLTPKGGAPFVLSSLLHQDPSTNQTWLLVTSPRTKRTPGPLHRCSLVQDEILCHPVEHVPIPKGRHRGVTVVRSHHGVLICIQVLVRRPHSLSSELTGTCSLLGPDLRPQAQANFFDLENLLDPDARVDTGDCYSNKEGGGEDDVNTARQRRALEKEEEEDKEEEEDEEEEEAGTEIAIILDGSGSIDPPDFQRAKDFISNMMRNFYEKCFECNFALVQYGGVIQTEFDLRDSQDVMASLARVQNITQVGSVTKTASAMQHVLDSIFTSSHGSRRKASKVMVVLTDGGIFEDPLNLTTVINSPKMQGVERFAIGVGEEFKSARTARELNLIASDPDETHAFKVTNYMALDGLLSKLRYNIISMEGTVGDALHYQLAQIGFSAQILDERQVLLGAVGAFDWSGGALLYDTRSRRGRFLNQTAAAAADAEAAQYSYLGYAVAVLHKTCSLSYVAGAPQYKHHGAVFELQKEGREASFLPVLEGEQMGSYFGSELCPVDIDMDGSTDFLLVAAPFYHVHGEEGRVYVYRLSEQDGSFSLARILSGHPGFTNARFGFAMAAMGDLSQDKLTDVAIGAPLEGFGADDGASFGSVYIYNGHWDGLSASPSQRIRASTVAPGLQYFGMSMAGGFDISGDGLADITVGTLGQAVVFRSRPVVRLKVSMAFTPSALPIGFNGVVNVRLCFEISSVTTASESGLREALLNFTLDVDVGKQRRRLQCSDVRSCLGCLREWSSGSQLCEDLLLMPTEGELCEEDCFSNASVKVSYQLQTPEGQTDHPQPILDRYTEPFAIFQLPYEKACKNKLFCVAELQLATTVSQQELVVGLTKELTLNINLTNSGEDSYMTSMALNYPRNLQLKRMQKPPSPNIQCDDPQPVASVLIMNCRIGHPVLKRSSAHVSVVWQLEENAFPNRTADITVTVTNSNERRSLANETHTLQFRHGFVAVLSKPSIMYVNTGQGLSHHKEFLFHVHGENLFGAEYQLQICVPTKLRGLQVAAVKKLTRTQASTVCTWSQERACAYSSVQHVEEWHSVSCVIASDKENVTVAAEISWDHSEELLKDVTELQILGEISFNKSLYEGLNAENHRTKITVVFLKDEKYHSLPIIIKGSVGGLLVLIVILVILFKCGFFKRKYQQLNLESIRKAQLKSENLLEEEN
T1 sequence (P26010 20-798 limits assumed, chain 2 of 2): as the sequence (P26010 20-798 limits assumed, chain 2 of 2) above
Chain of mutant αEβ7 integrin, αE F298A, on transfected K562 cells (P38570 other isoform, or with tags, fused parts or gaps F298A | F298A F298A, chain 1 of 2): as the sequence (P38570 other isoform, or with tags, fused parts or gaps limits assumed, chain 1 of 2) above, with F298A counted along it
Chain of mutant αEβ7 integrin, αE F298A, on transfected K562 cells (P26010 20-798, chain 2 of 2): as the sequence (P26010 20-798 limits assumed, chain 2 of 2) above

B1: mAb 3G6 (IgG1) (antibody, V domains shown)
VH: EVQLVQSGAEVKKPGESLKISCKGSGYSFTSYWIGWVRQMPGKGLEWMGIIYPGDSGPRYSPSFQGQVTISADKSISTAYLQWSSLKASDTAMYYCARLSYTSTWYPYYFDYWGQGTLVTVSS
VL: not shown
notes: Human antibody; also called converted 3G6 (IgG1); antibody produced by CHO 3G6 C1.2D6
For B1, in assay [1], the IC50 was ~2.04 µg/mL and ~13.4 nM. In addition, in assay [2], the binding result is “no binding”.

B2: mAb 5E4 (IgG1) (antibody, V domains shown)
VH: EVQLVESGGGLVQPGGSLRLSCAASGFTFSNFWMSWVRQAPGKGLEWMANIKQDGSEKYYVDSVKGRFTISRDNAKSSLFLQMNSLRVDDTAVYFCAGDYYDSGSFYWGQGTLVTVSS
VL: EIVLTQSPATLSLSPGERATLSCRASQSVRSNLAWYQQKPGQAPRLLIYDASNRAIGIPARFSGSGSGTDFTLTISSLEPEDFVVYYCQQRSNWPPWTFGQGTKVEIK
notes: Human antibody; also called converted 5E4 (IgG1); antibody produced by CHO 5G4 A1.2C12
Turning to B2, the IC50 in assay [1] is ~1.29 µg/mL and ~8.5 nM. The binding result in assay [2] is listed as “no binding”.

B3: mAb 5E4 (antibody, V domains shown)
VH: EVQLVESGGGLVQPGGSLRLSCAASGFTFSNFWMSWVRQAPGKGLEWMANIKQDGSEKYYVDSVKGRFTISRDNAKSSLFLQMNSLRVDDTAVYFCAGDYYDSGSFYWGQGTLVTVSS
VL: EIVLTQSPATLSLSPGERATLSCRASQSVRSNLAWYQQKPGQAPRLLIYDASNRAIGIPARFSGSGSGTDFTLTISSLEPEDFVVYYCQQRSNWPPWTFGQGTKVEIK
notes: The variable domains are the same as in m3 and m4
For the molecule B3, in assay [3], the binding result was “no binding”.

B4: mAb 8D5 (IgG1) (antibody, V domains shown)
VH: QVQLQESGPGLVKPSETLSLTCTVSGGSVSSYYWSWIRQPPGKGLEWIGHIYYSGNTNYNPSLKSRVTISVDTSKNQFSLKLSSVTAADTAVYFCARDRWNYYDSSPGYYYYYGMDVWGQGTTVTVSS
VL: DIQMTQSPSSLSASVGDRVTITCRASQGIRNDLGWYQQKPGKAPKRLIFAASHLQSGVPSRFSGSGSGTEFTLTISSLQPEDFATYYCQQHNSSPFTFGPGTRVDIK
notes: The variable domains are the same either way
For the molecule B4, the IC50 in assay [1] is ~0.715 µg/mL and ~4.7 nM.

B5: mAb 8D5 (antibody, V domains shown)
VH: QVQLQESGPGLVKPSETLSLTCTVSGGSVSSYYWSWIRQPPGKGLEWIGHIYYSGNTNYNPSLKSRVTISVDTSKNQFSLKLSSVTAADTAVYFCARDRWNYYDSSPGYYYYYGMDVWGQGTTVTVSS
VL: DIQMTQSPSSLSASVGDRVTITCRASQGIRNDLGWYQQKPGKAPKRLIFAASHLQSGVPSRFSGSGSGTEFTLTISSLQPEDFATYYCQQHNSSPFTFGPGTRVDIK
notes: also called 8D5 IgG2; human mAb 8D5 (IgG2)
On to B5, for which, in assay [2], the binding result was “no binding”.
